Measurements taken from patent US7481993B2, “Chelators for radioactively labeled conjugates comprising a stabilizing sidechain” (Schering AG, priority 2005, dated 2009).
Several values for one entry are separate records, joined by “and”; a condition that tells them apart may be missing. Equal entries are not always repeated. * marks the point of attachment. Mercaptoacetyl = O=C(CS)*; Bz = O=C(c1ccccc1)*

Assay: Cysteine challenge stability of ^99mTc chelator peptides
Assay type: physicochemical
Experimental: For the ^99mTc radiolabeling, a peptide as the TFA salt was dissolved in saline at 1 mg/mL and 100 μg (100 μL) was added to a ^99mTc placebo vial. The vial was reconstituted with 0.9 mL technetium ^99mTc sodium pertechnetate containing approximately 20 mCi and saline such that the final preparation volume was 1.1 mL. The vial was heated in a boiling water bath for 10 minutes and cooled at room temperature for 10 minutes.
The radiochemical purity (RCP) of the ^99mTc or ^188Re peptides was measured by gradient reversed phase HPLC using a Eurosphere-100 C18 HPLC column and 0.1% TFA mobile phases moderated with acetonitrile. Radioactive components were detected in the HPLC system using an in-line radiometric detector. Under the gradient conditions employed radiolabeled impurities (for example: ^99mTc glucoheptonate, ^99mTc edetate, and ^99mTc pertechnetate) eluted early (between 1 and 4 minutes), while the radiolabeled peptides eluted much later (between 8 and 20 minutes). In general, two isomeric radiometal complexes were observed, and the HPLC RCP was measured as the sum of the percent areas of the peaks corresponding to the two complexes. Radiochemical purity results for each of compounds are summarized in the examples that follow.
To ^99mTc radiolabelled peptide preparations described in Example 3 was added 150 μg of cysteine (approximately a 7-fold molar excess over peptide), and the preparations were stored at room temperature and monitored by HPLC for up to 12 hours. The amount of ^99mTc cysteine formed over time was noted. The initial HPLC analysis was started within 5 minutes of adding cysteine. In all cysteine challenge studies, a chelator compound containing a stabilizing sidechain was screened vs. the corresponding control chelator compound containing no sidechain. The relative amount of ^99mTc cysteine formed over time correlates inversely with the stability of the chelator (ie. less ^99mTc cysteine indicates higher chelator stability).
Several model chelator peptides were prepared with an N^1—N^2-Cys (N^1, N^2=independently any amino acid) amino acid sequence capable of complexing technetium as a triamide thiol chelator. Various stabilizing sidechains were substituted into the N^1—N^2-Cys chelator in two positions R1 and R2 as depicted in FIG. 4. The compounds were screened in the cysteine challenge experiment described in Example 4. Several experiments were conducted where 1-2 chelators were compared directly to a control chelator containing no stabilizing sidechain (compound GoC1 was also analyzed alone in a further study). Results in Table 5 represent % Peptide complexed to ^99mTc (ie. 100%−the amount of ^99mTc cysteine) vs. time.
Several model chelator peptides were prepared with an (β)Dap-N^2-Cys (N^2=any amino acid) amino acid sequence capable of complexing technetium as an amine diamide thiol chelator. This chelator is the chelator in the somatostatin peptides that were evaluated in Examples 5 and 6. Various stabilizing sidechains were substituted into the (β)Dap-N^2-Cys chelator in two positions R3 and R4 as depicted in FIG. 5. The compounds were screened in the cysteine challenge experiment described in Example 4. Several experiments were conducted where 1-2 chelators were compared directly to a control chelator containing no stabilizing sidechain. Results in Table 6 are the same as described in Example 7.
Two model chelator peptides were prepared with a ma-N^1—N^2 (Ma=mercaptoacetyl; N^1, N^2=independently any amino acid) amino acid sequence capable of complexing technetium as a triamide thiol chelator. This chelator has the thiol donor group at the N-terminus of the peptide. A stabilizing sidechain was substituted into the ma-N^1—N^2 chelator in position R5 as depicted in FIG. 6. The compounds were radiolabeled according to Example 3 with the exception that additional NaOH was added to bring the pH of the preparation up to pH 8.5. […]

[1] = (β)Dap-N2-Cys amine diamide thiol chelators, cysteine challenge
[2] = (β)Dap-N2-Cys amine diamide thiol chelators, cysteine challenge, Initial
[3] = N1-N2-Cys triamide thiol chelators, 150 μg cysteine, room temperature, Initial (within 5 minutes)
[4] = N1-N2-Cys triamide thiol chelators, cysteine challenge
[5] = (β)Dap-N2-Cys amine diamide thiol chelators, cysteine challenge, listed as Dap.GC
[6] = Ma-N1-N2 triamide thiol chelators, preparation pH 8.5, cysteine challenge
[7] = Ma-N1-N2 triamide thiol chelators, preparation pH 8.5, cysteine challenge, Initial

Substance | % Peptide Complexed to ^99mTc Initial [3] | % Peptide Complexed to ^99mTc 2 h [4] | % Peptide Complexed to ^99mTc 4 h [4] | % Peptide Complexed to ^99mTc 6 h [4] | % Peptide Complexed to ^99mTc 8 h [4] | % Peptide Complexed to ^99mTc 10 h [4] | % Peptide Complexed to ^99mTc 12 h [4] | also measured
Ac-Tyr-Gly-(β)Dap(COCH2CH2NH2)-Gly-Cys-Ala.amide [Dap-Y.GC] | – | – | – | – | – | – | – | % Peptide Complexed to ^99mTc 2 h [1]: 84.6%; % Peptide Complexed to ^99mTc 4 h [1]: 84.1%; % Peptide Complexed to ^99mTc 6 h [1]: 82.9%; % Peptide Complexed to ^99mTc 8 h [1]: 80.7%; % Peptide Complexed to ^99mTc 10 h [1]: 80.0%; % Peptide Complexed to ^99mTc 12 h [1]: 77.2%; % Peptide Complexed to ^99mTc Initial [2]: 93.7%
Ac-Tyr-Gly-(β)Dap-Gly-Cys-Ala.amide [Dap.GC2] | – | – | – | – | – | – | – | % Peptide Complexed to ^99mTc 2 h [1]: 67.7%; % Peptide Complexed to ^99mTc 4 h [1]: 55.1%; % Peptide Complexed to ^99mTc 6 h [1]: 49.6%; % Peptide Complexed to ^99mTc 8 h [1]: 44.7%; % Peptide Complexed to ^99mTc 10 h [1]: 38.0%; % Peptide Complexed to ^99mTc 12 h [1]: 38.7%; % Peptide Complexed to ^99mTc Initial [2]: 83.4%
Ac-Tyr-Gly-Gln-Gly-Cys-Ala.amide (Ac-YGQGCA-NH2) | 92.9% and 96.3% | 88.7% and 88.3% | 88.8% and 86.1% | 86.6% and 84.0% | 85.6% and 82.0% | 83.8% and 77.6% | 84.2% and 75.9% | –
Ac-Tyr-Gly-Glu-Gly-Cys-Ala.amide (Ac-YGEGCA-NH2) | 91.4% | 84.1% | 78.1% | 73.3% | 67.4% | 60.1% | – | –
Ac-Tyr-Gly-Gly-(D)Orn-Cys-Ala.amide [GoC2] | 94.3% | 91.1% | 89.1% | 89.2% | 89.0% | 87.2% | 86.9% | –
Ac-Tyr-Gly-Gly-Gly-Cys-Ala.amide (Ac-YGGGCA-NH2) [GGC2, control chelator, no stabilizing sidechain] | 90.1% and 92.0% and 95.7% and 93.6% | 70.7% and 80.7% and 79.3% and 81.0% and 77.8% | 61.8% and 72.0% and 70.5% and 73.3% and 67.5% | 57.1% and 65.7% and 65.6% and 61.0% and 60.4% | 46.2% and 61.0% and 57.8% and 53.0% and 54.7% | 39.1% and 59.0% and 55.1% and 48.0% and 50.2% | 33.3% and 57.2% and 44.5% and 41.2% and 46.6% | –
Ac-Tyr-Gly-Gly-His-Cys-Ala.amide (Ac-YGGHCA-NH2) | 78.8% | 74.3% | 72.9% | 70.9% | 68.8% | 69.2% | 67.9% | –
Ac-Tyr-Gly-Gly-Orn-Cys-Ala.amide [GOC] | 98.2% | 93.8% | 90.0% | 86.1% | 80.0% | 78.1% | 88.6% | –
Ac-Tyr-Gly-Met-Gly-Cys-Ala.amide (Ac-YGMGCA-NH2) | 93.9% | 92.4% | 89.3% | 85.9% | 82.0% | 79.9% | 77.2% | –
Bz-Gly-(β)Dap-Gly-Cys-Ala.amide [Dap.GC1] | – | – | – | – | – | – | – | % Peptide Complexed to ^99mTc 2 h [1]: 78.1%; % Peptide Complexed to ^99mTc 2 h [5]: 78.9%; % Peptide Complexed to ^99mTc 4 h [1]: 62.7%; % Peptide Complexed to ^99mTc 4 h [5]: 42.6%; % Peptide Complexed to ^99mTc 6 h [1]: 57.8%; % Peptide Complexed to ^99mTc 6 h [5]: 51.6%; % Peptide Complexed to ^99mTc 8 h [1]: 51.9%; % Peptide Complexed to ^99mTc 8 h [5]: 46.3%; % Peptide Complexed to ^99mTc 10 h [1]: 46.2%; % Peptide Complexed to ^99mTc 12 h [1]: 43.3%; % Peptide Complexed to ^99mTc 12 h [5]: 37.6%; % Peptide Complexed to ^99mTc Initial [2]: 81.7%
Bz-Gly-(β)Dap-Met-Cys-Ala.amide [Dap.MC] | – | – | – | – | – | – | – | % Peptide Complexed to ^99mTc 2 h [1]: 95.4%; % Peptide Complexed to ^99mTc 4 h [1]: 89.8%; % Peptide Complexed to ^99mTc 6 h [1]: 92.6%; % Peptide Complexed to ^99mTc 8 h [1]: 91.6%; % Peptide Complexed to ^99mTc 10 h [1]: 88.4%; % Peptide Complexed to ^99mTc 12 h [1]: 89.7%; % Peptide Complexed to ^99mTc Initial [2]: 97.4%
Bz-Gly-Gly-Gln-Cys-Ala.amide (Bz-GGQCA-NH2; SMILES C[C@H](NC(=O)[C@H](CS)NC(=O)[C@H](CCC(N)=O)NC(=O)CNC(=O)CNC(=O)c1ccccc1)C(N)=O) | 97.8% | 93.2% | 88.7% | 82.4% | 80.1% | 78.7% | 73.5% | –
Bz-Gly-Gly-Met-Cys-Ala.amide (Bz-GGMCA-NH2; SMILES CSCC[C@H](NC(=O)CNC(=O)CNC(=O)c1ccccc1)C(=O)N[C@@H](CS)C(=O)N[C@@H](C)C(N)=O) | 96.9% | 92.6% | 88.6% | 83.7% | 82.7% | 78.6% | 77.2% | –
Ma-(D)Orn-Gly-Tyr-Ala.amide [Ma.oC] | – | – | – | – | – | – | – | % Peptide Complexed to ^99mTc 2 h [6]: 87.4%; % Peptide Complexed to ^99mTc 4 h [6]: 87.2%; % Peptide Complexed to ^99mTc 6 h [6]: 84.9%; % Peptide Complexed to ^99mTc 8 h [6]: 85.9%; % Peptide Complexed to ^99mTc 10 h [6]: 84.1%; % Peptide Complexed to ^99mTc 12 h [6]: 82.7%; % Peptide Complexed to ^99mTc Initial [7]: 100%
Ma-Gly-Gly-Tyr-Ala.amide (Mercaptoacetyl-GGYA-NH2; SMILES C[C@H](NC(=O)[C@H](Cc1ccc(O)cc1)NC(=O)CNC(=O)CNC(=O)CS)C(N)=O) [Ma.GG, control chelator, no stabilizing sidechain] | – | – | – | – | – | – | – | % Peptide Complexed to ^99mTc 2 h [6]: 91.3%; % Peptide Complexed to ^99mTc 4 h [6]: 75.7%; % Peptide Complexed to ^99mTc 6 h [6]: 61.2%; % Peptide Complexed to ^99mTc 8 h [6]: 48.7%; % Peptide Complexed to ^99mTc 10 h [6]: 42.2%; % Peptide Complexed to ^99mTc 12 h [6]: 32.7%; % Peptide Complexed to ^99mTc Initial [7]: 100%
